Test results from the supplement of paper PMC10724198.
± gives the standard deviation of the averaged measurements.

Tested on: Saccharomyces cerevisiae
Test: protein stability index of tFT-peptide fusion (C-terminal peptide) (PSI (0-1 scale)); higher = more stable (slower turnover)
Conditions: genetic background: wild type; temperature: 30 C
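Also: PSI is a weighted mean of sequencing reads over stability bins, variants kept only with over 10 reads, mCherry proximal and sfGFP distal, peptide attached via GGGS linker.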

In order of falling protein stability index:
1. STLPPPSSPFHP  0.96 ± 0.021
2. SPWERTEMTFPR  0.822 ± 0.18
3. SREEWQSSKLRD  0.784 ± 0.089
4. SSALVLSGPPHS  0.782 ± 0.1
5. SPPSLRLPPPPA  0.772 ± 0.021
6. TCTDTCIRGSRL  0.77 ± 0.033
7. SPPRPPPPSPPF  0.768 ± 0.015
8. SPSSFLLSPPIP  0.764 ± 0.071
9. SPSRPRPPPHAP  0.7624 ± 0.00086
10. SSGASRWSRSKF  0.762 ± 0.074
11. SSPLPPPSRAAC  0.762 ± 0.011
12. SWGACVDYLGWS  0.754 ± 0.03
13. SSPAGSRLPFGS  0.75 ± 0.11
14. SPRLSSCPPAGF  0.749 ± 0.017
15. SPPPPSRLPPPP  0.748 ± 0.096
16. SSRFNVAPGGCR  0.745 ± 0.11
17. SVAPAPYQTAKQ  0.744 ± 0.032
18. SYLMVATRFGEN  0.741 ± 0.067
19. SWVSSGTVILQE  0.74 ± 0.077
20. SYRNRTEHPKLP  0.74 ± 0.036
21. SPTRMSAFVRLD  0.739 ± 0.071
22. SSAPCLRIFVTR  0.737 ± 0.062
23. SYSGLLEALTTL  0.737 ± 0.032
24. SRPPSPPLCHPA  0.736 ± 0.054
25. SYMLEGVEGVGE  0.736 ± 0.086
26. SSPSPPSPPLPP  0.735 ± 0.0095
27. TKNTQNNGKDKK  0.734 ± 0.059
28. SRTVSLDYHFMS  0.7319 ± 0.00097
29. SPPPGPAPPMSP  0.731 ± 0.03
30. SWVGHGIPPWHM  0.729 ± 0.027
31. TEYCSRHDTATK  0.728 ± 0.0096
32. STFGVMVTHEMN  0.727 ± 0.021
33. SYPRATPPWMAG  0.727 ± 0.092
34. SRHIFAPFGLFG  0.726 ± 0.056
35. SWLGGIGGNEMV  0.726 ± 0.011
36. TEKTHRTTIVNN  0.7254 ± 0.0061
37. SPRRSPLLLLPL  0.723 ± 0.064
38. THCWQVLPCGLI  0.723 ± 0.0089
39. SPPPLPPVRPPV  0.722 ± 0.033
40. TDWCSYWSGWVV  0.722 ± 0.019
41. SREYKRRTPSSK  0.718 ± 0.03
42. SSTDLLDLALLV  0.718 ± 0.094
43. SRSPPRSGVPPL  0.716 ± 0.032
44. SWVSQFLVFWPV  0.716 ± 0.044
45. SRRGIRSSSAAR  0.714 ± 0.065
46. SRGAFGPCEFFL  0.712 ± 0.0076
47. STLRFGVSLWLP  0.712 ± 0.03
48. SPPRSSRTHAPP  0.7108 ± 0.006
49. SWVDVGSWLGGV  0.7108 ± 0.0043
50. SPRSATAPPPLP  0.71 ± 0.028
51. SSSVQSIPLPSA  0.71 ± 0.043
52. SSRGSSSPPPHF  0.709 ± 0.074
53. SVMMGVWWSGYR  0.709 ± 0.13
54. SRPPILAHPTPS  0.707 ± 0.049
55. TKCSPLASRFSC  0.707 ± 0.016
56. SRKIAPNGTATL  0.706 ± 0.012
57. TGRGSMSNVRVK  0.706 ± 0.06
58. SSPPPPPPPLPL  0.705 ± 0.023
59. SPYVGVALGGVW  0.704 ± 0.012
60. SSPPTPPFPPPP  0.7044 ± 0.00099
61. SSPSPPRPPAPF  0.704 ± 0.091
62. TEGGSSKPSSNP  0.704 ± 0.089
63. SRVVCVGGRLFG  0.702 ± 0.045
64. STFQVHSLPISP  0.702 ± 0.031
65. TFSGWYIQGQIV  0.702 ± 0.16
66. SPPPLPPSPLSS  0.701 ± 0.046
67. SVCRVSVKKECR  0.701 ± 0.12
68. SPPLTSPPPAPP  0.7 ± 0.017
69. STIIKLCDCYKM  0.7 ± 0.11
70. STLVIPFPPFHF  0.7 ± 0.018
71. SPPLRSRSGSFL  0.699 ± 0.062
72. SRTYAHSPPLPA  0.699 ± 0.027
73. SSWGARSGRRPS  0.6989 ± 0.0045
74. STNARRLWGRGV  0.699 ± 0.033
75. TGTATGTEGANY  0.698 ± 0.022
76. TGTVYGGTRRGQ  0.698 ± 0.075
77. SRFKTVDCWKVW  0.697 ± 0.097
78. SVPRPLSRPPFL  0.697 ± 0.086
79. SPPLPPLPLLQL  0.696 ± 0.021
80. SRYSAVSVSRWH  0.696 ± 0.041
81. STLYLKRKKIKK  0.696 ± 0.033
82. THRAGLGANKGL  0.696 ± 0.029
83. SRGGGRSEGGEG  0.695 ± 0.033
84. SRRRIENNKTEN  0.695 ± 0.015
85. SSPPFPPSPPLP  0.695 ± 0.012
86. SWYSLVWTSSER  0.695 ± 0.054
87. TARRGAARSSQL  0.695 ± 0.017
88. SVTSKDEYDLEE  0.694 ± 0.043
89. SVDPIFLNSGLG  0.693 ± 0.045
90. SRGLVVYMDALR  0.692 ± 0.028
91. SRKTDTRLTMIN  0.692 ± 0.032
92. SVHPVNRDPSRH  0.6904 ± 0.0014
93. STPPPHSPLPPP  0.689 ± 0.066
94. SRPRPPHTLLRP  0.688 ± 0.065
95. SVSPSPPSPHLR  0.688 ± 0.011
96. TCAGTGSTHLSR  0.688 ± 0.035
97. TGGRRKNCIIKK  0.688 ± 0.062
98. SSPRPPPPRFSP  0.687 ± 0.039
99. TGLYWGQIPYSQ  0.687 ± 0.062
100. SRPPRSPPLPPV  0.686 ± 0.046
101. SSPCFGKLRHFL  0.686 ± 0.035
102. SSCRKFLFAIRR  0.685 ± 0.02
103. SSIEAGFSSIVI  0.685 ± 0.04
104. SSSHIRTDLSHF  0.6852 ± 0.0065
105. SWGLGWIARRRT  0.684 ± 0.052
106. TGVCKGMRWRGV  0.683 ± 0.045
107. TKKKKKKNKKQE  0.683 ± 0.012
108. SPPSRASFPPPS  0.682 ± 0.022
109. SYSLGAGVCGVW  0.682 ± 0.058
110. SVPFPTEYLVVD  0.681 ± 0.075
111. SSSPLLDPPLPH  0.68 ± 0.017
112. SSSPSPRPPRPP  0.679 ± 0.0097
113. TASPPLHSFLGS  0.679 ± 0.034
114. TFSWISGKPRHT  0.679 ± 0.041
115. SSIGPTECSYFS  0.678 ± 0.088
116. SSPPSPSPPPPT  0.678 ± 0.038
117. SYPPLLPQLPPP  0.678 ± 0.062
118. SPRLPPSTHSPP  0.677 ± 0.15
119. SSLLPSPPPPLP  0.677 ± 0.028
120. TCTGAKHRCHVL  0.677 ± 0.011
121. SRTDGLIYTALI  0.676 ± 0.021
122. SSPFSLPSPPLS  0.676 ± 0.071
123. STRERPDRHAVS  0.676 ± 0.016
124. SRPRTTRKAASS  0.674 ± 0.012
125. THSLRIRESNNT  0.674 ± 0.014
126. SPSPPLPSRLIL  0.673 ± 0.026
127. TGTEKFTMQFKF  0.673 ± 0.042
128. STAKTARRKREK  0.671 ± 0.0094
129. TANRVDDSILSS  0.671 ± 0.024
130. TEFFVFNRTQSL  0.671 ± 0.088
131. SPTSPAPPPNAS  0.67 ± 0.0092
132. SPTLSPPPPLAL  0.667 ± 0.031
133. SRYRSTSESMKV  0.667 ± 0.038
134. SVALPLRQTPLH  0.667 ± 0.047
135. SVGPVGASIGGG  0.6668 ± 0.0032
136. SVPNYDAVGAGD  0.667 ± 0.097
137. SPPPHPPAAPDS  0.6626 ± 0.0058
138. SWGDVGSWLGGV  0.663 ± 0.0068
139. SPTALPPPPVPP  0.662 ± 0.041
140. SVVGEKAALMGV  0.662 ± 0.014
141. STHTASAIQWST  0.661 ± 0.025
142. SRFEPLSCEQCS  0.66 ± 0.05
143. SRGRTRLVAPIV  0.66 ± 0.14
144. SPPPALPPSSPS  0.657 ± 0.025
145. SPSFSLLFPFLL  0.657 ± 0.037
146. SRGGSGKDTGRT  0.657 ± 0.04
147. SVCSRVLILSPF  0.657 ± 0.068
148. SRRETKTRLAPN  0.656 ± 0.14
149. TESGWMGRGFMR  0.656 ± 0.088
150. SPPPMSPLLRPA  0.653 ± 0.033
151. SRHVAGVGGGEV  0.652 ± 0.019
152. SPPPAPPRSGPL  0.651 ± 0.051
153. SPRLPPPPPLPP  0.651 ± 0.11
154. SPRPLFPPHRPT  0.651 ± 0.044
155. SVALGRQGTPNI  0.6506 ± 0.0064
156. TFRHLRPPLRSR  0.649 ± 0.037
157. TKQLKGEQERDG  0.648 ± 0.031
158. SPSTPPPPSPPV  0.647 ± 0.017
159. SVINMLKPCNVI  0.647 ± 0.05
160. SSLPPPAPSFVP  0.646 ± 0.1
161. SRGMRNPLSADR  0.645 ± 0.098
162. SRSLHGTEEYRE  0.644 ± 0.099
163. SPRRFVVVSGQG  0.643 ± 0.012
164. TGPSLDRALLDL  0.6412 ± 0.002
165. SSLTPRVSFIIF  0.64 ± 0.12
166. TGKIRWIPAIRS  0.64 ± 0.039
167. SVNGTGGGVVDL  0.638 ± 0.12
168. TGEVPPPRCEGE  0.638 ± 0.014
169. TEVSAPAPPCLW  0.6371 ± 0.0058
170. SQVRYIANRKDG  0.635 ± 0.091
171. SRRVVDVGVIRV  0.635 ± 0.02
172. SPSPLSLRLPPP  0.632 ± 0.028
173. STGMYFYTHYLL  0.632 ± 0.024
174. SPPSLYRRVRPS  0.63 ± 0.084
175. SYQPQLDSKRVG  0.63 ± 0.019
176. SYCRPPPLPGLP  0.628 ± 0.038
177. STLPTHQLPPHS  0.624 ± 0.022
178. SVSGTPLRALLH  0.622 ± 0.01
179. SPPLNSFPPTPP  0.62 ± 0.068
180. SRRDRGHWSVRS  0.6198 ± 0.0039
181. STSPRSAFSPLT  0.619 ± 0.011
182. SVSGPAPPSMSS  0.618 ± 0.12
183. SPPRPPPVPPPP  0.617 ± 0.054
184. SRFFFSPRLCVP  0.604 ± 0.033
185. SSGVIIGRIAVK  0.603 ± 0.033
186. SVFPHPYMVVRS  0.598 ± 0.0092
187. SSMCYARIIWWG  0.596 ± 0.039
188. SWLKRNLFPVAI  0.596 ± 0.018
189. SRFLTPLPLAMF  0.592 ± 0.018
190. SSPLPPAPPTAS  0.587 ± 0.1
191. SYETLRTPARIA  0.583 ± 0.043
192. SRFQFCCCLFFF  0.578 ± 0.0074
193. STVPGRPKLTLV  0.578 ± 0.032
194. TCPLSFFLSFLF  0.565 ± 0.037
195. SSPHRPTPSWPP  0.564 ± 0.0069
196. SVLVTRILKFFL  0.558 ± 0.068
197. SVPVLLLSILSP  0.542 ± 0.013
198. SPPPPLELIPSP  0.534 ± 0.025
199. STLTPLPLRASA  0.5333 ± 0.005
200. SPRPPLLLPVTV  0.53 ± 0.26
201. SRLMGLGLLCVG  0.5272 ± 0.0013
202. TAYNVTLVIARG  0.468 ± 0.094
